Columns and labels:
human saphenous veins = assay: Ex vivo cultured human saphenous veins, intimal thickening; conditions: 10× higher levels than 100-500 nM
Procedure: Saphenous veins were cut into 0.5 cm segments, and processed immediately (●) or cultured in 10% FBS/M199 containing 15 μM control III-11c peptide (▪) or pUR4 (▴) at 37° C. for 14 days. Veins were fixed, paraffin embedded, sectioned, and stained. Morphometric analysis was performed on six randomly chosen sections using Image-Pro Plus software. The intima/media ratio was determined by dividing intima area by media area. Paired student t-test was used to analyze the data. Data are expressed as mean±S.E.M. *p<0.05.
Human saphenous veins cultured in serum containing media develop intimal hyperplasia after 14 days in culture (Soyombo et al., “Intimal Proliferation in an Organ Culture of Human Saphenous Vein,” Am J Pathol. 137(6):1401-1410 (1990); Angelini et al., “Smooth Muscle Cell Proliferation in Response to Injury in an Organ Culture of Human Saphenous Vein,” Eur J Vasc Surg. 5(1):5-12 (1991); and Slomp et al., “Nature and Origin of the Neointima in Whole Vessel Wall Organ Culture of the Human Saphenous Vein,” Virchows Arch. 428(1):59-67 (1996), which are hereby incorporated by reference in their entirety). This system thus provides an ex vivo model system for studying mechanisms that lead to intimal hyperplasia that has distinct advantages over in vitro culture systems. […]

[1] = target: fibronectin-collagen interactions (Homo sapiens, UniProt P02751); assay: Blocking of fibronectin-collagen interactions in cell culture; format: cell-based; conditions: cell culture experiments
Sequence of fibronectin-collagen interactions (P02751 32-2477): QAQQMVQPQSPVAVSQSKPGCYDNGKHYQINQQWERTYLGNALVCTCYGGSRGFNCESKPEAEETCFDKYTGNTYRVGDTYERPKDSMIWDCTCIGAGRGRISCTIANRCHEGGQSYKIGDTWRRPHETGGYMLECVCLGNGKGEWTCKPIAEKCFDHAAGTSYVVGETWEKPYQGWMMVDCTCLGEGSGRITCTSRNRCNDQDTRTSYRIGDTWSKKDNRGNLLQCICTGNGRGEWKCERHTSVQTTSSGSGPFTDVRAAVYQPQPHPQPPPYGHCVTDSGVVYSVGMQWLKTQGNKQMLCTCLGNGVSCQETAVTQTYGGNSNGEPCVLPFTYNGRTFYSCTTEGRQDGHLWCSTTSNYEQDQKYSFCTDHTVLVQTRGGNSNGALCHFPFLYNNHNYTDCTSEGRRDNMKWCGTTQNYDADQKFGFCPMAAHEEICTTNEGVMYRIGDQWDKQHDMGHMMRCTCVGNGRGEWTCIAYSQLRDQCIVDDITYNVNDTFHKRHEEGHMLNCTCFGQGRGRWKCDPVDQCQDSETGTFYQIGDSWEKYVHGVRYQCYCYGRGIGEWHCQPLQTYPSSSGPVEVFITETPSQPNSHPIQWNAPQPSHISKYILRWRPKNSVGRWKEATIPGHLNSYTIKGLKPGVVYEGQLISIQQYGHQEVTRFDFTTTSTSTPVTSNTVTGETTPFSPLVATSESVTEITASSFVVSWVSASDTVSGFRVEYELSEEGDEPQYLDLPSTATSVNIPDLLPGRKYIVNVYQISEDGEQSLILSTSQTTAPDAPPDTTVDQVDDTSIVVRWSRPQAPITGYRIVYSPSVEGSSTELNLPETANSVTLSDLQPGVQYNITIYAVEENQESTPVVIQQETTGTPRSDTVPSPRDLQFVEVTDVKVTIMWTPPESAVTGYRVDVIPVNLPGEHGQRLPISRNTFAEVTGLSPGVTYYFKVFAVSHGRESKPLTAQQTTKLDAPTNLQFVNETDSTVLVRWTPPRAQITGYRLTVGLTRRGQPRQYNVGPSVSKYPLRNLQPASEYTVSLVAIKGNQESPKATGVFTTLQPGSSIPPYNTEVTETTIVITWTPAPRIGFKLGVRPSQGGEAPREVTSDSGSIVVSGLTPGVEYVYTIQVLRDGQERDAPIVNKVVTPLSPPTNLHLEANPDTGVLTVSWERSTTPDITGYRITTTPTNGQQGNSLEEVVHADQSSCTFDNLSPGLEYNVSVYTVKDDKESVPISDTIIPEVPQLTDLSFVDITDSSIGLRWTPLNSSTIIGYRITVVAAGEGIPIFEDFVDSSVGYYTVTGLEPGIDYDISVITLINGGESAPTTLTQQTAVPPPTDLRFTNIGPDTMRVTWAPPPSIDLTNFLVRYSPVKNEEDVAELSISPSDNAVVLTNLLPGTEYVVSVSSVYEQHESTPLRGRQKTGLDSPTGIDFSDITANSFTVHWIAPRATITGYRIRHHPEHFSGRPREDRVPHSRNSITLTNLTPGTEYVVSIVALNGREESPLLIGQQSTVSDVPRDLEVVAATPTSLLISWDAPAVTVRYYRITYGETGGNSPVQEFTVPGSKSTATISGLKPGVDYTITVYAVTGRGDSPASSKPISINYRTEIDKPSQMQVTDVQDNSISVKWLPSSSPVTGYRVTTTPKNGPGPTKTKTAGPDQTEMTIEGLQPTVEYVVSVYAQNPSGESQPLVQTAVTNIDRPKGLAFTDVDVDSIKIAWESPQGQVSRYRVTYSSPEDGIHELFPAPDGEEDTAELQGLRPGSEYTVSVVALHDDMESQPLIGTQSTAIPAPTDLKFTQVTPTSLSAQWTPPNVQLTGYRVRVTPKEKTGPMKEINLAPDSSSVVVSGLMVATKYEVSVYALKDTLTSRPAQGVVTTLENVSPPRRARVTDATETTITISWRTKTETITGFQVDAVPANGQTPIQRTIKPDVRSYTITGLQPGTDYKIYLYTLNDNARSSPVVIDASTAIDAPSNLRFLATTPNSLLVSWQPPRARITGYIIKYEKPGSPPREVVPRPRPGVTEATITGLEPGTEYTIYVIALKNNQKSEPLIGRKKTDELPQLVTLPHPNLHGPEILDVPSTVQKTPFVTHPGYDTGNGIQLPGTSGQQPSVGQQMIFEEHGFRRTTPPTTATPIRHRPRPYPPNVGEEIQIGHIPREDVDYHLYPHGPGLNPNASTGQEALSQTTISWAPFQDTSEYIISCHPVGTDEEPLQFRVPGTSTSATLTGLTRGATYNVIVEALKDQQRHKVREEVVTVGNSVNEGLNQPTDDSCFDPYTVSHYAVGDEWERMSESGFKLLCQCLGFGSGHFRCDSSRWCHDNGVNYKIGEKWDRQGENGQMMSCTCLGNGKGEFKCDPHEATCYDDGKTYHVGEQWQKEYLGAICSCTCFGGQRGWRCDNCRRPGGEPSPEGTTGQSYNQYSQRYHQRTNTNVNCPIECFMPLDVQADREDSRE

B1: R1R2: class II bacterial adhesin derived peptide (SEQ ID NO: 4) that interferes with fibronectin-collagen binding (peptide)
chain: HHHHHHGSGLNGENQKEPEQGERGEAGPPLSGLSGNNQGRPSLPGLNGENQKEPEQGERGEAGPPKSN
modifications: Bacterial adhesin derived peptide R1R2
- intimal hyperplasia (human saphenous veins): attenuate
- concentrations effective at blocking fibronectin-collagen interactions [1]: 100 to 500 nM

From patent US9364516B2, “Treatment of fibrosis-related disorders using fibronectin binding proteins and polypeptides” (priority 2010, dated 2016)
